Data on one protein can be found in publication doi:10.1101/490516, “Molecular mechanism of the Orai channel activation” (bioRxiv, 2018).

Usually stoichiometry N stands for a count of units in the complex or per binding partner.

This data set concerns the molecule itself. The data set can be described thus: crystal structure; 4.5 Å, molecular replacement with the closed Orai structure 4HKR; protein in NG/NM with POPC:POPE:POPG; sitting drop, 0.05 M NaCl, 0.02 M MgCl2, 0.1 M sodium citrate pH 6.5, 16%-20% PEG400, 17 °C.

B1: dOrai-P288L channel (Drosophila melanogaster Orai, amino acids 132-341, C224S, C283T, P288L) (domain or fragment, UniProt Q9U6B8 132-341, looked up)
chain: SMSQSGEDLHSPTYLSWRKLQLSRAKLKASSKTSALLSGFAMVAMVEVQLDHDTNVPPGMLIAFAICTTLLVAVHMLALMISTCILPNIETVSNLHSISLVHESPHERLHWYIETAWAFSTLLGLILFLLEIAILCWVKFYDLSPPAAWSATVVLILVMIIFMAFAIHFYRSLVSHKYEVTVSGIRELEMLKEQMEQDHLEHHNNIRNNG
notes: Orai, Drosophila melanogaster, Uniprot Q9U6B8, amino acid residues 132-341 with C224S, C283T and P288L; codons optimized for Homo sapiens; pEG-BacMam vector; PreScission site and eGFP at the C-terminus, eGFP cleaved by 3C protease on the Ni-NTA beads; No His tag is described, though Ni-NTA beads were used; it probably left with the eGFP; also called dOrai1-P288L; open Orai channel; source: …
On to B1, for which the “stoichiometry N” value came out at 6.
